Experimental data published in paper PMC6764859 (Nature chemical biology, 2019).

Columns and labels:
[1] = target: PTCH1_(ECD2), biotinylated (BLI) (human, UniProt Q13635, biotin on the BirA-recognition sequence); test: BLI
[2] = target: PTCH1_(ECD1), biotinylated (BLI) (human, UniProt Q13635, biotin on the BirA-recognition sequence); test: BLI
Sequence of PTCH1_(ECD1), biotinylated (BLI) (Q13635 139-428): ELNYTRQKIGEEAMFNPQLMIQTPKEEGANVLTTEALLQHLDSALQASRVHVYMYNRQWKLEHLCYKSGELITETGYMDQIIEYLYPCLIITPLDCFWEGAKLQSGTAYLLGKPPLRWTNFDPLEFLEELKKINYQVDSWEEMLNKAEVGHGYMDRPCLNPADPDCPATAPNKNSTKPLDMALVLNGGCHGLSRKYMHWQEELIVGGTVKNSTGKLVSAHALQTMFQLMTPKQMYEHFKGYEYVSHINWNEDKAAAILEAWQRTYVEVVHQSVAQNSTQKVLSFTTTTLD

Sequence of PTCH1_(ECD2), biotinylated (BLI) (Q13635 772-1023): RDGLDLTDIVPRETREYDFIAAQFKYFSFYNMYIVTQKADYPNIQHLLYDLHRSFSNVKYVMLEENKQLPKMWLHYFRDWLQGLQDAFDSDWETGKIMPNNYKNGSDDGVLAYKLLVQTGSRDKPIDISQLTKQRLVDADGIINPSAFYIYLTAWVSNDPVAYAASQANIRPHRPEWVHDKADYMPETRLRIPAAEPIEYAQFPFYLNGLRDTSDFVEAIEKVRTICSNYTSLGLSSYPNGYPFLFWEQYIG

B1: NB75 (VHH)
VHH: QVQLQESGGGLVQAGDSLTLSCAASGRTFSSYTMGWFRQAPGKERDFIAGITSTGSSTYYADSVKGRFTISRDNAKNTVYLQMNSLKPEDTADYYCARKVAGGSYYQKDKYDYWGQGTQVTVSS
B1: binds [1].

B2: NB64 (VHH)
VHH: QVQLQESGGGLVQPGGSLRLSCAASGSGNSINVMGWYRQAPGKPRELVAEITSSGTTNYADSVKGRFSISRDNAKNTVPLQMNSLKPEDTAIYYCSAVLVRFGGLRRSYWGQGTQVTVSS
B2: binds [2].
